Reference: article PMC314469, “Protein Interaction Networks by Proteome Peptide Scanning” (PLoS Biology, 2004)

T1: Myo5 SH3 (MYO5_YEAST), Q04439
T1 chain: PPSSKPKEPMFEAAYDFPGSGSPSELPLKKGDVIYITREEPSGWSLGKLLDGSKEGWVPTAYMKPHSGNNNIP

T2: Boi1 SH3 (BOI1_YEAST), P38041
T2 chain: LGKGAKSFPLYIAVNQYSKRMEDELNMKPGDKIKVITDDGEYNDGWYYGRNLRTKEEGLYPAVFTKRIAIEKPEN

T3: Yfr024 SH3 (LSB3_YEAST), P43603
T3 chain: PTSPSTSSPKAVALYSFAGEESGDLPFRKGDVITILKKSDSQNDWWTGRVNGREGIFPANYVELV

T4: Rvs167 SH3 (RV167_YEAST), P39743
T4 chain: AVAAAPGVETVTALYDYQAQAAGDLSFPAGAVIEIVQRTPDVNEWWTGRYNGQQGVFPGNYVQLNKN

T5: Yhr016c SH3 (YSC84_YEAST), P32793
T5 chain: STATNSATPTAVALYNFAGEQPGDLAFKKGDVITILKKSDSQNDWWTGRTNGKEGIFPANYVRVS

T6: Boi2 SH3 (BOI2_YEAST), P39969
T6 chain: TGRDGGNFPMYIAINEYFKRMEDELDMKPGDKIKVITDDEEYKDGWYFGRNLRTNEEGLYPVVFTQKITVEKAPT


Experiments:
Assay in all cases: SPOT array
[1] = biological target: T1, Myo5 SH3 (MYO5_YEAST), Q04439
[2] = biological target: T2, Boi1 SH3 (BOI1_YEAST), P38041
[3] = biological target: T3, Yfr024 SH3 (LSB3_YEAST), P43603
[4] = biological target: T4, Rvs167 SH3 (RV167_YEAST), P39743
[5] = biological target: T5, Yhr016c SH3 (YSC84_YEAST), P32793
[6] = biological target: Sho1 SH3 (SHO1_YEAST), P40073
Chain of Sho1 SH3 (SHO1_YEAST), P40073 (P40073 295-366): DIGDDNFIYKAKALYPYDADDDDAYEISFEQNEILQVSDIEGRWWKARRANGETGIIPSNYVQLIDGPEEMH

[7] = biological target: T6, Boi2 SH3 (BOI2_YEAST), P39969

Binder | normalised SPOT signal, Boehringer light units (BLU); mean over the file's lines of this peptide [1] | normalised SPOT signal, Boehringer light units (BLU); mean over the file's lines of this peptide [2] | normalised SPOT signal, Boehringer light units (BLU); mean over the file's lines of this peptide [3] | normalised SPOT signal, Boehringer light units (BLU); mean over the file's lines of this peptide [4] | normalised SPOT signal, Boehringer light units (BLU); mean over the file's lines of this peptide [5] | normalised SPOT signal, Boehringer light units (BLU); mean over the file's lines of this peptide [6] | normalised SPOT signal, Boehringer light units (BLU); mean over the file's lines of this peptide [7]
TTTYKSRPDRPKPV [YBR289W 757-770] | 309 | 607 | 266 | 97.7 | 68.7 | 44.7 | 23.7
VAPNRIPPKVPVIN [YDR466W 429-442] | 61100 | 103 | 213 | 55.9 | 17.7 | 19.2 | 25
VFYHRPAPKPPVTK [YDL028C 400-413] | 9050 | 879 | 156 | 90.2 | 95 | 267 | 29.2
VSTIRSTPSQPIHS [YDR390C 176-189] | 245 | 93.9 | 177 | 68.8 | 37.4 | 59.8 | 39.1
VEMKRKKPVRPVDI [YDR436W 385-398] | 472 | 1610 | 2590 | 64 | 152 | 66.9 | 48.2
TVSDRLIPTSPQKT [YGR146C 10-23] | 128 | 50 | 76.1 | 143 | 13 | 60.1 | 31.8
VSHSKYIPLKPIQD [YGL017W 314-327] | 298 | 138 | 34.8 | 6.3 | 25.7 | 25.4 | 29.9

Further lines, results first:

normalised SPOT signal, Boehringer light units (BLU); mean over the file's lines of this peptide [1] | normalised SPOT signal, Boehringer light units (BLU); mean over the file's lines of this peptide [2] | normalised SPOT signal, Boehringer light units (BLU); mean over the file's lines of this peptide [3] | normalised SPOT signal, Boehringer light units (BLU); mean over the file's lines of this peptide [4] | normalised SPOT signal, Boehringer light units (BLU); mean over the file's lines of this peptide [5] | normalised SPOT signal, Boehringer light units (BLU); mean over the file's lines of this peptide [6] | normalised SPOT signal, Boehringer light units (BLU); mean over the file's lines of this peptide [7] | Binder
46200 | 3490 | 891 | 663 | 91.7 | 95.5 | 12.6 | TVRTRRRPPPPPIP [YNL094W 462-475]
357 | 12200 | 892 | 361 | 134 | 71.3 | 69.1 | TYGFRVRPDFPVFG [YMR295C 130-143]
1870 | 86.4 | 290 | 598 | 32.8 | 50.1 | 0 | TTTIKNRPVPPPLP [YPL140C 79-92]
96.4 | 51.6 | 0 | 64.7 | 22.1 | 81 | 19.2 | VFVEKSKPTYPGTE [YOL155C 384-397]
101 | 193 | 20100 | 11900 | 47100 | 14200 | -0 | TYLTRPLPSTPNED [YOL070C 348-361]
134 | 0 | 0 | 35.2 | 15.2 | 22.1 | 13.5 | VDSFKYEPLAPGND [YLR335W 665-678]
130 | 107 | 98.7 | 180 | 43.3 | 30.9 | 31.8 | VEVDKKVPVLPMVA [YMR108W 643-656]
171 | 594 | 179 | 222 | 71.2 | 35.6 | 77.3 | VEKRKFTPIEPSLL [YPL242C 332-345]
444 | 64.5 | 522 | 356 | 173 | 657 | 23.6 | TYIWRYLPAPPVSI [YOR116C 255-268]
